Source: patent publication US9688764B2, “Methods of treating breast cancer by administering anti-human prolactin receptor (PRLR) antibodies” (REGENERON PHARMACEUTICALS, INC., priority 2013, dated 2017)

B1: H1H6953N-DM1 (conjugate)
VH: EVQLLESGGGLVQPGGTLRLSCAASGFTFSAYAMSWVRQAPGKGLEWVSSINVRAGDTYYADSVKGRFTISRDNSKNTLFLLMNSLRAEDTAAYYCAKARYSSNWGFDFWGQGTLVTVSS
VL: DIVMTQSPDSLTVSLGARTTINCQSSQTILHSSNNHNYLAWYQQKPGLPPKLLIYWSSTRESGVPDRFSGSGSGTDFTLTISSLQAEDVAIYYCQQYSNTPYTFGQGTKLEIN
B2: H1H6958N2-DM1: anti-PRLR antibody H1H6958N2 conjugated to DM1 through an SMCC linker (conjugate)
VH: QVQLVESGGGVVQPGRSLRLSCGASGFTFRNYGMQWVRQGPGKGLEWVTLISFDGNDKYYADSVKGRFTISRDNSKNTLFLQMNSLRTEDTAVYYCARGGDFDYWGQGTLVTVSS
VL: DIQMTQSPSSLSASVGDRVTITCRASQDIRKDLGWYQQKPGKAPKRLIYAASSLHSGVPSRFSGSGSGTEFTLTISSLQPEDFATYYCLQHNSYPMYTFGQGTKLEIK

Key:
MCF7/hPRLR/hErbB2 cells = assay: Cell viability (cell kill) assay; assay type: cell-based, human; settings: MCF/PRLR + ErbB2; Table 17
Excerpt: (§1) PRLR-overexpressing cells, including HEK293, PC3, MCF7 and NCI-N87, were generated to assess the ability of anti-PRLR conjugated antibodies to reduce cell viability. For comparative purposes, PC3 and T47D cells with overexpressed ErbB2 were also generated, as well as an MCF7 cell line over-expressing both hPRLR and hErbB2. Briefly, Lipofectamine® 2000-mediated transfection methodology was utilized to generate HEK293 cells expressing human PRLR (HEK293/hPRLR) or human ErbB2 (HEK293/hErbB2). Lipofectamine LTX with Plus Reagent was used to generate PC3 cells expressing human PRLR (PC3/hPRLR) or human ErbB2 (PC3/hErbB2). Lentiviral-mediated transduction was utilized to generate MCF7 cells expressing human PRLR (MCF7/hPRLR), NCI-N87 cells expressing human PRLR (NCI-N87/hPRLR), T47D cells over-expressing human ErbB2 (T47D/hErbB2), and MCF7 cells expressing both human PRLR and human ErbB2 (MCF7/hPRLR/hErbB2). All lines were selected for at least two weeks in complete growth media plus appropriate selection reagents. Stably expressing populations were enriched for PRLR expression via FACS using the anti PRLR antibody Control I.
(§2) Next, the ability of anti-PRLR-DM1 antibody-drug conjugates (i.e., anti-PRLR antibodies conjugated to DM1 via a non-cleavable linker [SMCC]) to reduce cell viability was determined using in vitro cell based assays. Cells were seeded in PDL-coated 96 well plates at 1500 to 10000 cells per well in complete growth media and allowed to grow overnight. For cell viability curves, ADCs or free DM1 (as the methyl disulfide derivative DM1-SMe) were added to the cells at final concentrations ranging from 500 nM to 5 pM and incubated for 3 days. The 293, PC3 and T47D cells were incubated with CCK8 (Dojindo, Rockville, Md.) for the final 1-3 hours and the absorbance at 450 nm (OD450) was determined on a Flexstation3 (Molecular Devices, Sunnyvale, Calif.). MCF7 cells were treated with Hoechst 33342 nuclear stain while being fixed with 4% formaldehyde. Images were acquired on the ImageXpress micro XL (Molecular Devices, Sunnyvale, Calif.) and nuclear counts were determined via Columbus image analysis software (Perkin Elmer, Shelton, Conn.). Background OD450 values (PC3, 293, and T47D) or nuclear counts (MCF7) from digitonin (40 nM) treated cells was subtracted from all wells and viability was expressed as a percentage of the untreated controls. IC50 values were determined from a four-parameter logistic equation over a 10-point response curve (GraphPad Prism).
(§3) The potency of anti-PRLR conjugated antibodies compared with a similarly conjugated antibody to the co-expressed ErbB2 cell surface target was also assessed. Both PRLR and ErbB2 are expressed in a majority of breast cancers, and anti-ErbB2 antibodies conjugated to DM1 have shown clinical efficacy in targeting ErbB2 (+) breast cancer (Hurvitz et al; 2013).

NCI-N87/hPRLR cells = assay: Cell viability (cell kill) assay; assay type: cell-based, human; settings: NCI-N87/PRLR; Table 17
Excerpt: as §1, §2, §3

PC3/hErbB2 cells = assay: Cell viability (cell kill) assay; assay type: cell-based, human; settings: PC3/ErbB2; Table 15
Excerpt: as §1, §2, §3

SK-BR-3 cells = assay: Cell viability (cell kill) assay; assay type: cell-based; settings: Table 16
NCI-N87 cells = assay: Cell viability (cell kill) assay; assay type: cell-based; settings: Table 17
Excerpt: as §1, §2
The potency of anti-PRLR conjugated antibodies compared with a similarly conjugated antibody to the co-expressed ErbB2 cell surface target was also assessed. […]

T47D#11 tumors = assay: Tumor growth inhibition in xenograft-bearing mice; assay type: in vivo, CB17 SCID mice; settings: multi-dose, 5 and 15 mg/kg
Excerpt: Briefly, 20×10^6 MCF7/PRLR cells (ATCC HTB-22 transfected with full length hPRLR as previously described) were implanted subcutaneously into the left mammary fat pad of female NCr nude mice. In other studies, 10×10^6 PC3/PRLR (ATCC CRL-1435 transfected with full length hPRLR as previously described) were implanted subcutaneously into the left flank of male SCID mice. Additionally, 10×10^6 parental T47D (ATCC HTB-133) or […] T47D#11 cells (ATCC HTB-133 serially passaged in vivo as described below) were subcutaneously implanted into the left flank of female CB17 SCID mice. All mice were obtained from Taconic (Hudson, N.Y.). Each bolus of cells was supplemented with a 90-day estrogen release pellet (1.7 mg/pellet; Innovative Research America, Sarasota Fla.). Once tumors had reached an average volume of 250 mm^3, mice were randomized into groups of seven and dosed with anti-PRLR antibody-drug conjugates of the invention or control reagents. Control reagents included PBS vehicle, free methyl-disulfide DM1 (DM1-SMe) and isotype Control 1-DM1.
In multi-dose studies, mice were dosed once a week for a total of three weeks with tumor volumes and body weights being monitored twice weekly throughout the study. Test ADCs were dosed at 5 and/or 15 mg/kg in the multi-dose studies. In single-dose studies, mice received a single dose of test ADC, and tumor volumes and body weights were monitored twice weekly throughout the study. Test ADCs were dosed at 1, 2.5, 5, and 15 mg/kg in the single-dose studies. Average tumor size as well as tumor growth inhibition relative to the vehicle treated group were calculated for each group. Tumors were measured with calipers twice a week until the average size of the vehicle group reached 1000 mm^3. Tumor size was calculated using the formula (length×width^2)/2. Tumor growth inhibition was calculated according to the following formula: (1−((Tfinal−Tinitial)/(Cfinal−Cinitial)))*100, where T (treated group) and C (control group) represent the mean tumor mass on the day the vehicle group reached 1000 mm^3. […] Results are summarized in Tables 21-25 (multi-dose) and Table 26 (single dose). (NT=not tested in the particular experiment shown).

Molecule | IC50 (MCF7/hPRLR/hErbB2 cells) [nM] | IC50 (NCI-N87/hPRLR cells) [nM] | IC50 (PC3/hErbB2 cells) [nM] | IC50 (SK-BR-3 cells) [nM] | % Kill (NCI-N87 cells) [%] | IC50 (NCI-N87 cells) [nM] | effect on T47D#11 tumor growth (T47D#11 tumors)
B1 | 0.33 | 2.9 | 80 | 100 | 83 | 90 | –
B2 | – | – | – | – | – | – | potently inhibited tumor growth
